Test results from patent US9567369B2, “Method of treating metastatic cancer” (A.T. Still University, priority 2012, dated 2017).
Ends that are not written are not given here.

Key:
[1] = system: metastatic human melanoma 1205 Lu cells; assay: MTT growth assay of human 1205 Lu melanoma cells with peptide; assay type: cell-based; details: peptide 10 uM, 1 time addition or day 1-3 addition; identical conditions as for B16
Method: B16F10 melanoma cells were obtained from the ATCC. Human 1205 Lu metastatic melanoma cell line was received from Robert Baer, PhD, a collaborator with our laboratory here at ATSU. Growth was in RPMI 1640 media supplemented with FBS (10%) and penicillin, streptomycin, amphotericin antibiotics (1%) (Sigma). Cells were maintained in a humidified incubator at 37° C. with 5% CO2.
The growth of B16F10 melanoma cells by the MTT method was performed with the addition of 10 uM peptide to the melanoma cells in standard 96-well culture plates. Cells were cultured in media for 4 days after seeding at about 1000 cells per well. After growth the culture media was replaced with media containing 0.5 mg/ml MTT solution and incubated for 4 hours at 37° C. The MTT solution was then removed and the residual dye was solubilized in 100 ul isopropanol for 15 minutes before reading the O.D. at 570 nm.

protein kinase C (PKC) = assay: Inhibition of protein kinase C activity
papain = target: T1, papain (Carica papaya, UniProt P00784); details: at 160 uM; cited from earlier work
T1 sequence (P00784 134-345): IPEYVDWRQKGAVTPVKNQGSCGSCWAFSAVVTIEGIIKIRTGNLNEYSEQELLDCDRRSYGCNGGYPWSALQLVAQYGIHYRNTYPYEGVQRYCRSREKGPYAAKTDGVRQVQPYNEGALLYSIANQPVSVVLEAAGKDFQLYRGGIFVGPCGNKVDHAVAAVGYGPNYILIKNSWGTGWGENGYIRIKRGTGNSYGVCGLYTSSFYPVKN

B16 melanoma cells = assay: Boyden chamber-type migration assay, Cystatin C overexpressing clone cc6 versus control plasmid clone pc2; assay type: cell-based, murine; details: B16 melanoma cells overexpressing Cystatin C (clone cc6) compared to control plasmid transfected (pc2); bFGF chemotactic factor
Excerpt: (§1) The Cystatin C cDNA was amplified from B16F10 melanoma cells by PCR amplification of reverse transcribed total RNA isolated from B16 F10 melanoma cells in culture. The primers used for the amplification were derived from 5′ and 3′ sequences for murine Cystatin C from Solem et al. (18). The PCR product corresponding to the expected size was agarose gel purified and ligated into pcDNA3 expression plasmid for further analysis. The plasmid was sent to for sequence analysis at the University of Chicago and the sequence analysis produced a cDNA sequence which exactly matched murine Cystatin C cDNA sequence (19). Transfection of the cystatin plasmid or pcDNA3 plasmid was carried out with Lipofectamine™ reagent (Invitrogen) by the manufacturer's instructions. Isolated cell colonies, which had grown following Geneticin® (1 mg/ml) selection were trypsized in glass cloning rings and transferred to multi-well tissue culture dishes for expansion in culture.
Cells (2×104) are placed into the top well of the Boyden chamber in cell culture media while media plus bFGF chemotactic factor (25 ng/ml) is placed into the lower well of the chamber. Quantitation is through direct microscopic counting of 10-20 fields of crystal violet stained cells per filter.

[2] = system: MARCKS phosphorylation in B16F10 melanoma cells; assay: MARCKS phosphorylation by western blot with phospho-antibody probing; assay type: cell-based; details: murine Cystatin C overexpressing clone cc6 B16F10 melanoma cells vs control
Excerpt: as §1
For analysis of B16 melanoma proteins, melanoma cell cultures were lysed with lysis buffer and extracts were centrifuged at 10K rpm for 5 minutes. Protein was measured by Lowry assay and 40 ug of protein was loaded per lane on 10% SDS-PAGE gels for analysis. After electrophoresis, the proteins were transferred to PVDF membranes which were first blocked with 2% BSA in TBST buffer. […]

## RQIKIWFPNRRMKWKKAYRKQLVAGVNYFFDVH [penetratin linked to active peptide]
[1]
  growth of human 1205 Lu melanoma cell line: significantly inhibits

## YRKQLVAGVNYFFDVH (listed as Mus musculus) [therapeutic peptide, Therapeutic peptide derived from mouse Cystatin C with the first A substituted by Y]
Protein kinase C (PKC)
  inhibition of protein kinase C (PKC) activity: inhibits
papain
  inhibition of papain: 20%

B1: Cystatin C: natural cysteine protease inhibitor; murine Cystatin C cDNA overexpressed from pcDNA3 plasmid in B16F10 melanoma cells (clone cc6) (protein, UniProt P21460 21-140, looked up)
Cystatin-C: ATPKQGPRMLGAPEEADANEEGVRRALDFAVSEYNKGSNDAYHSRAIQVVRARKQLVAGVNYFLDVEMGRTTCTKSQTNLTDCPFHDQPHLMRKALCSFQIYSVPWKGTHSLTKFSCKNA
B16 melanoma cells
  inhibition of migration: ~80%
[2]
  average level of MARCKS phosphorylation, fold less: 3-5 fold
